According to the supplement of paper PMC10126150:
± gives the standard deviation of the averaged measurements.

Test system: ATP
Experiment: switch fluorescence ratio, 500 uM ATP over buffer (Cy3 cluster intensity, sum of 5 cycles each) (fold (ratio)); higher = stronger signal-on switching upon ATP binding; sequences stand for … in TCGTCGGCAGCGTCAGATGTGTATAAGAGACAGTTTTTTTTTTTTTTTTTTTTTTTTT…TC
Settings: aptamer strand: ATP DNA aptamer (quencher-CACCTGGGGGAGTATTGCGGAGGAAGG + anchor), 100 nM annealed; ATP concentration: 500 uM
Procedure, shortened: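 Clusters carrying Cy3-labelled switching strands on a modified Illumina MiSeq flow-cell were annealed to 100 nM quencher-labelled ATP aptamer and imaged in selection buffer. They were imaged again after 15 min with 500 uM ATP at 22 °C, over five buffer/ATP cycles with NaOH stripping and re-annealing in between. For each cluster, the fluorescence ratio is the summed Cy3 intensity of the target cycles divided by that of the buffer cycles, averaged per switch-domain sequence. Clusters outside 100-1000 RFU were left out.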
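Further: ATP exposure 15 min at 22 °C before imaging.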

| Sequence | switch fluorescence ratio |
| --- | --- |
| CGGGGGAAGG | 0.979 ± 0.026 |
| TGGAAGCCGG | 0.957 ± 0.037 |
| AATCAGGCGA | 1.013 ± 0.0032 |
| TGGGTGGCAA | 1.03 ± 0.05 |
| AAGTCATTAA | 0.99 ± 0.031 |
| GATACCTATG | 1.03 ± 0.027 |
| TTGGCGGGGT | 1.04 ± 0.081 |
| ATTTAGGTCA | 0.983 ± 0.011 |
| TTCGGAATTG | 1.04 ± 0.033 |
| TTCCGAGCTA | 2.563 ± 0.0074 |
| TGGGCTCTGT | 0.978 ± 0.044 |
| AGTCCTCGGA | 0.96685 ± 0.00022 |
| CACTAACCAT | 1.09 ± 0.069 |
| TTTCGGTTCC | 1.05 ± 0.051 |
| GGCGAAAACT | 1.073 ± 0.0052 |
| TAGAAGGGGT | 0.969 ± 0.047 |
| GTACGGTTTT | 0.994 ± 0.073 |
| TTAACCAGTC | 1.04 ± 0.022 |
| GCCAGCCGTT | 1.014 ± 0.0038 |
| TGCACCGAGT | 1.04 ± 0.018 |
| GGCTAAGTTT | 0.97 ± 0.02 |
| GAAATAAGTG | 1.04 ± 0.026 |
| AGAAATTGGT | 1.02 ± 0.029 |
| ACTGTGTGGC | 0.992 ± 0.012 |
| TTTCTTTT | 1.042 ± 0.0027 |

| Sequence | switch fluorescence ratio |
| --- | --- |
| TTTTGGGTAA | 1.01 ± 0.0051 |
| TTTGGGTGTG | 0.983 ± 0.016 |
| TTGATTGGCC | 0.958 ± 0.018 |
| AAACTTGGCT | 1.024 ± 0.0074 |
| TATTTTGTTT | 0.99 ± 0.014 |
| AAGTCCGTTG | 1.009 ± 0.0083 |
| CGCCTGGGAT | 1.03 ± 0.0027 |
| AGAGTCGATT | 1.014 ± 0.0028 |
| GGGTAATGAG | 1 ± 0.022 |
| TTAAGATAGG | 1.01 ± 0.025 |
| CCGGTCTTTT | 0.961 ± 0.018 |
| AGTTACTGGG | 1.06 ± 0.046 |
| GTTACTGTTC | 0.98 ± 0.13 |
| CGTCAGTATG | 1 ± 0.033 |
| GTCATCTGGG | 0.982 ± 0.017 |
| TGGGTTTCT | 1 ± 0.041 |
| GACATAAGTT | 1 ± 0.044 |
| CTCTAACAGC | 1.08 ± 0.022 |
| TTTGGATATA | 0.9726 ± 0.0041 |
| TTGGGGATGG | 1.01 ± 0.047 |
| TCTAAGGGAG | 0.987 ± 0.012 |
| ACGTATATTG | 1.058 ± 0.0052 |
| GACGAGGAGG | 1 ± 0.017 |
| TCTTAGTTTG | 0.986 ± 0.015 |
| TAATAGGGAT | 0.98 ± 0.019 |

| Sequence | switch fluorescence ratio |
| --- | --- |
| ATGGCGGGTT | 1 ± 0.016 |
| CATCTAAGGG | 0.983 ± 0.042 |
| ATCTCGGGCT | 0.973 ± 0.042 |
| TAATAAGGTG | 1.13 ± 0.23 |
| AAAGAATTTC | 0.981 ± 0.038 |
| TATAGGATTT | 1 ± 0.08 |
| GGTGTATGGT | 0.985 ± 0.018 |
| AAAGCCGCTG | 1.02 ± 0.033 |
| AAGGGGGATG | 1.01 ± 0.035 |
| ACAGGGGGTA | 1.02 ± 0.024 |
| GGGTAGCTAG | 1.04 ± 0.022 |
| TAGATCGCTG | 0.931 ± 0.028 |
| TCATTTCGCC | 1.071 ± 0.0047 |
| GGGGGGTGTC | 1.01 ± 0.038 |
| GGTTAAAAGG | 1 ± 0.032 |
| TATAAGGGGT | 0.9862 ± 0.0083 |
| TCGCTTACTG | 1.3 ± 0.053 |
| TCTGTCCCGC | 1.16 ± 0.11 |
| TCTATTATCA | 1.04 ± 0.024 |
| ATCGGGAGGA | 1 ± 0.029 |
| CGCGATGGCG | 0.98 ± 0.017 |
| TAGGGGGGGC | 0.978 ± 0.022 |
| CCGGGTTAGT | 1.06 ± 0.017 |
| TGACGTTGAG | 0.9868 ± 0.0056 |
| TTAAATTTTA | 1.01 ± 0.019 |

| Sequence | switch fluorescence ratio |
| --- | --- |
| TTGGGTGTTG | 0.997 ± 0.037 |
| GGTCGGCATA | 1.01 ± 0.042 |
| CTGGGGTTGT | 1.02 ± 0.012 |
| TTTTCGTTTG | 1 ± 0.074 |
| GGAGATGCGG | 1.02 ± 0.011 |
| TTTCGAGTGC | 0.97892 ± 0.00082 |
| CAAAATTTGC | 0.9841 ± 0.0061 |
| CTGTTTAATG | 0.9871 ± 0.0038 |
| AGATGGGGCG | 0.955 ± 0.088 |
| AAGCGGTTCG | 0.98939 ± 0.0009 |
| CAGTACTCTG | 0.986 ± 0.031 |
| GCCATTAAGA | 1.01 ± 0.011 |
| TGTTTGTATC | 1.01 ± 0.016 |
| TTTTTATCGT | 1.02 ± 0.017 |
| ATTTATTTTA | 1.01 ± 0.012 |
| TAAAATAAAG | 0.993 ± 0.033 |
| TGCCTTGAGA | 1 ± 0.015 |
| GATGTGATTT | 1.08 ± 0.078 |
| ATATCAAAAT | 1.01 ± 0.013 |
| GGGAGTGGGT | 0.99 ± 0.024 |
| GGGAGGGTGC | 1.02 ± 0.07 |
| GGGGGAATCC | 1.06 ± 0.08 |
| ACAGAAAGAC | 1.15 ± 0.27 |
| CGGCGGGCGA | 1.03 ± 0.02 |
| TGATGCTTTT | 1.01 ± 0.035 |
